Experiment: soluble on expression in E. coli; label from the status in PepcDB or PDB records

Sequence | soluble on expression in E. coli
MSGNYVINIGRQLGSGGKEIGEKLAARLGIDFYDKELINLASEESGLCKEFFEKADEKASQGIIGGLFGMRFPFISEGAMPCTNCLSNDALFKVQSDVIRRLAAEKSCVFVGRCADYILREHPRCANVFISATKEDRIARLCQMHRIDEEAAEEMIEKADKRRSEYYNYYSYKTWGAAATYHLCVDSSSLGIEETVRFVEEFVAKKLQIGM | not soluble
MSGPTDTSTQPQGFSMTRLRLIGSAVLLSLSSMAMADSASQAEQFLKLVHADKLTVPVYAQVQQMLAQRFAQAKAPESKKAVLERYQAKANAELDRAIGWDKIKPELIKLYTTNFTESELKDLNAFYQSPLGKKVLEKMPRLTAESAQLTQAKLQGAVEPVNKLMADMDKELGVAAPAQKKK | not soluble
MSGRVGDLSPRQKEALAKFRENVQDVLPALPNPDDYFLLRWLRARSFDLQKSEAMLRKHVEFRKQKDIDNIISWQPPEVIQQYLSGGMCGYDLDGCPVWYDIIGPLDAKGLLFSASKQDLLRTKMRECELLLQECAHQTTKLGRKVETITIIYDCEGLGLKHLWKPAVEAYGEFLCMFEENYPETLKRLFVVKAPKLFPVAYNLIKPFLSEDTRKKIMVLGANWKEVLLKHISPDQVPVEYGGTMTDPDGNPKCKSKINYGGDIPRKYYVRDQVKQQYEHSVQISRGSSHQVEYEILFPGCVLRWQFMSDGADVGFGIFLKTKMGERQRAGEMTEVLPNQRYNSHLVPEDGTLTCSDPGIYVLRFDNTYSFIHAKKVNFTVEVLLPDKASEEKMKQLGAGTPK | soluble
MSGTEEAILGGRDSHPAAGGGSVLCFGQCQYTAEEYQAIQKALRQRLGPEYISSRMAGGGQKVCYIEGHRVINLANEMFGYNGWAHSITQQNVDFVDLNNGKFYVGVCAFVRVQLKDGSYHEDVGYGVSEGLKSKALSLEKARKEAVTDGLKRALRSFGNALGNCILDKDYLRSLNKLPRQLPLEVDLTKAKRQDLEPSVEEARYNSCRPNM | soluble
MSHAHKKHKENAPKSLNFYVITISTSRYEKLLKKEPIVDESGDIIKQLLIENGHKIIGYSLVPDDKIKILKAFTDALSIDEVDVIISTGGTGYSPTDITVETIRKLFDREIEGFSDVFRLVSFNDPEVKAAAYLTKASAGIIGKKIVYLLPGSPDAVKLALKELILPEVGHLVYLVRS | soluble
MSHLNYETRLPLGQATIDHFMGLPAHPTKCQATYVWIDGTGEHLRAKTRTINTKPQYLSEYPIWNYDGSSTGQADGLNSDRYLRPVAVFPDPFLGGLNVLVMCDTLDHEMKPTATNHRQMCAELMKKVSDQQPWFGMEQEYLIVDRDEHPLGWPKHGYPAPQGKYYCGIGADRAFGREVVETHYRACLHAGITIFGSNAEVTPGQWEFQIGTCLGIEMGDQLWMARYILHRVAEQFGVCVSLDPKPRVTMGDWNGAGCHTNFSTIDMRRPDGLETIIAAMEGLKKTHSEAMKVYDPNGGHDNLRRLTGRHETSQADQFSWGIANRACSVRIPRQVADEGRGYLEDRRPSSNCDPYLVTAMIVKSVLIN | not soluble
MSHLVYVSRVVAAPIERVWPHLRDFNGLSAWHPGVADSRLEEGGRDDAPGTVRFLSLNPSGYVRERLLMLDDAGRSLRYAIIETDLPMRDYVAGVDLCPVTEGGGTFAQWWADFDVVAGANRDEVARLVGEGVFAAGLQALDQYLRDRQG | soluble
MSHPVVSKEEWLAARRDLLVKEKELTRARDRLNEARRALPWEEVTKDYIFDAPSGPRSLQELFGDCSQLIVYHFMLAPDWEEGCVGCSFFADHVDGALVHLRHGDAGFVAVSRAPLEKIEGYKNRMGWKFPWVSAEGSDFNYDYQASFRDEDVEKGEITYNYRDMAPFGDLKDLHGISVFAKGEDGKIYHTYSTYARGAEQTLGTLMLLDLVPKGRNEDEVMDWVRRHDQYEDAPKAASCCH | not soluble
MSHYLSPGAYLPHDAPMLLLEDVVSVSDDSAVCRVTVSPSGVLAPFLDPDGNLPGWFTLELMAQTVGVWSGWHRHQQGKNSIELGMILGARELLCTTGILPAGQTLTITVKLLMQDDRFGSFECSINDGEATGRINTFQPTAEELTTLFQQGAS | not soluble
MSIALLAAATSSMAQSLDKMNWLNEPQQWEIKEGKALVMDVPAKTDFWRISHYGFTVDDGPFYYATYGGEFEVKVKITGNYVTTFDQMGLMLRIDHENWIKAGVEYVDGKQNVSAVVTHRTSDWSVVQLPDAPRSLWIKAVRRLDAVEIFFSRDDKEYTMIRTCWLQDNCPVMVGLMGACPDGKGFTATFEEFKVTPLADQRRLEWAKKQADKLEHHHHHH | not soluble
MSIESIRNVIAKDMGEVDNVIQQKLHSQVALVRQVSEYIIHSGGKRLRPALVILAAGLFDYKGLHHHNLAAVVEFIHTATLLHDDVVDESELRRNQATANALFGNAASVLVGDFLYSRAFQMMVEVGNMRVMEVLADATNTIAEGEVLQLLNCRDPDVEEENYLQVIRFKTAKLFEAAARLGAILGGATPAEEEALAAYGMHLGTAFQLVDDLLDYSGNDQDTGKNLGDDLAEGKPTLPLIFAMRSGIPEQVDTVRHAIETGGKDGFEPILKIIQESGALDYAKQCAQNEANMAISAITAIRDSIYKQCLLELAEFAITRNY | not soluble
MSIFQSFKSVAAAIAVCAGIFTGFSANAQSVDDIVKRGSVKIGVLVGAPPFGSVDAQGNPVGYDADVATLIGKYLGVPVTMVQLTPPSRIPALESGKVDFLVATLAPTPERAKAVMFTNPYSAFQVGIYSHKDTKIEKWEDLKGMTVGVNRGSSVEREFVNREKELGLTILRFDDDATTMQALFSGQVQAIAGPDAQANAAIKLRGDTTTEVKFFFSIQPNSMTVRKDAVDLHQWLNNTIYYIKQNGELDAIARKWVGTPLPVLPTF | not soluble
MSIGVVLAKITAEFPDVTVSKIRYLESEGLITPQRTSTGYRRFTQDDVERLRYILVTQRDNYLPLKVIREQLEAMDSGAVTPISRGSDNAPLISPESFRTSVVTRLSDSDVAARAQVSESEVSELAEAGLIRPDSSGFFTADDVQVVSVAVQLKEFGFDVRHLKSLRNLASRHADLISRATTPVARSQSESARQRAEEMSQQLSALVVSLNATMLRSMLRDELNR | not soluble
MSIINDENGRGYKVHLCKTNIAQNNNKFYDMELLDEGGDFIVKLINGRIGYRGVTQLKDFDDLDRAKKFFESKFYEKTHLHWEERDDEPVPNKYAVVELATNARQTEKEVKKEEPEPEPKVDEKNTRGRKKRGIVKEKKEIKKEEEPVEEVNEKLKELMKCICDEDVHLGLLKQLKFNEAFGRPIDCLSLAQLTTGYEILSKIEESIGGKSARRSTRGRPRVADRVLAVKSDGPSLHDINKYYSLIPHSFGFCVPPKIDSHAKIQAERELLDALKGSIEASLELKDLKKTASSKDIYQRLYERLPCHLEPVSEEIAGKIGDCLAMRGPTHCYKLSLIDAFELKDPNEIPTEAPVEVQEVPKKRGRKSTKTAAPTVPPPTTKRLLWHGTRVTNVFSILMNGLQFPVGDRCGLMFGNGVYFANVPTKSANYCCPEASKRVFMLLCEVETANPLVLYESEIDADEKMEKAKKTSVYAAGKHTPRDTVEINGIPAFKSNLETIEEETRLLYDEYVMFNKEHFKIKYVVEVKVDRLTAKEMMA | not soluble
MSILHTVNKSPFERNSLESCLKFATEGASVLLFEDGIYAALAGTRVESQVTEALGKLKLYVLGPDLKARGFSDERVIPGISVVDYAGFVDLTTECDTVQAWL | soluble
MSILKNAGEPVISMRYIPYNGGAVKETWWDRDSDRKRLLISLGTVKPMVDGLELISWVMDSANEVDADIILQLAINARTGLRKLPSNVRLVDWIPMGVFLNGADGFIHHGGAGNTLTALYSGIPQIVFGEGADRSVNAEIVAKRGCGIIPDKHGLTSDLVNRLLYDDSLRFCSDQVAAEMAEQPSPAEIAEVLMRKLKNNGKQL | not soluble
MSINNTQNNCRFCSEISQANGEDPIGTAIAVEQYLIIEAAQPWPIPIWIEPDPMPQGVIEALNFIWEGGGTVRQLAIAPDKEYSHPGYTRVIYYRRPAKFFAQFEKQEFIVPHALLGSLALALLKNPEELPNFNQYRQQTNHIREILVCNHGNVDAACSRFGYPIYQKLRSEYAAATNSNLRFWRCSHFGGHEFAPTLVDLPQGQYWGHLKPEILDLLVLRNGSVKELYPYYRGWGGLSFFEQIAEREIWMLEGWKWLEYHKAGQVLASDEINQEWADVRIDFTTVDGNISSAYQARVEVKGSVMTAWKSGANPTLEEVKQYRVRNLVKLAL | not soluble
MSIRRSDPLAQVSDFDIRLLRIFKSVVEAGGFSAAESALGIGRSAISQQMSDLEQRLGLRLCQRGRAGFSLTDEGREVYQSSLQLLSALESFRTEVNGLHQNLRGELNIGLTDNLVTLPHMRITHALSRLKERGPGVHINIRMIAPAEVEQGVLDGGLHVGVVPQASALPGLEYHSLYSERSLLYCAVGHPLFYAENTMLDDQRLALQEAVAPTFRLPNDIQEHYKALTCTASASDREGIAFLILTGRYIGYLPDHYANAWVQEGRLRALKPDAKFYDLNLVTVTRKGRRPHLVLEGFLEALAATR | not soluble
MSISIMTETRPESAEQQHHEVLQRPSDEPCSGCKQLQKDVAKTISMVMERMDKLQYRLDELLKENNELKSSSVSSGKASPSPAESRSSPKLVETVVAPVSGARKRKPKERSPPAAASPLPDFSNLMNGFMFDPLNMSNPNGMMQLLSMVQQQQQQQQHHQHIENQQSVSPPQSKSVKIEDPMDQDVKQEESERSDIPTATEAQNLLDALTAQFSSNGQATSTTSPPSSSSQVQAVIEAVATPSSQSQDSSMFEKTETSGDPNAARCSNCRTDKTTAWRRDAEGKLVCNPCGLYYRLHKVRRPIEMRKNHIQQRYRRKNKEKESSAATQIFNQLLTQMPTMATGGVSTDGAINTFNLLEQISQFTQAQELMNSSATF | not soluble
MSITIFNRDLKEIYYEKQYKNGQLKFLYNTILGRMLLKLFISTRLFSKINAIFNNNKGSIKKIEPFINEYKIDMSEYEKKEYTSFDDFFTRKILEGKRSFSKEKSHLISPADSKLMVYEIDDDLKMNIKNSIYTVGELLNDEKLSREYKNGTCLIFRLTVDDYHRYCFIDDGSLKYRKVINGRLHTVGPISSKRYKVYSENNREYSVLKTRNFGKVIQIEVGALLVGKIKNHSIKVFKKGDEKGYFCFGGSTIVLLFKEKVIKMDEDILEYSKAGIETKIKMGEKIGETNDLEHHHHHH | soluble
MSIVAKSYEESADPVVAYCAEHTAVQTPLQAELQKETLTNAPHSGMLGAPEVLTFGENFIKFLGAKRVLDVGTFTGASALAWALAVPDDGEVFTFDIDHANYRKFGVPILSKCEKTFKKIKPVEGPGVESLDKLIADGQSGTFDFAFIDADKANYSNYYEKCVSLLRKGGVIFVDNSLWDGAVCDPAKRTDPRTAAIHEMNDKIYQDDRTYSALLNLGDGIHMAFKK | not soluble
MSIVTVQLGQCGNQIGFEVFDALFRDSHCSQGLCSKRDNEAYQASCRERFFREEENGVPVARAVLVDMEPKVINQTLSKAAQSGRWNYGQHTSFCQKQGSGNNWAYGYSVHGPKHEESIMNLIQTEVEKCDSLSGFFIIMSMAGGTGSGLGAFVTQKLQDQYSSSLKMNQIIWPYGTGEVIVQNYNSILTLSHLYRSSDALLIHENDAVHKICAKRMNIKQISFRDLNQVLAHQLGSVFQPTYSEDSSFHYRRNPLGDLMEHLVPHPEFKMLGVRNIPQMSAASLAYSAFTWAGLLKHLRQMLISSAKMEEGINWQVRPPLTGLPPIGKASAHKEHHFNTSLANLVVLRGREVHSADVEGFKDPALYTSWLEPVDAFSVWKTQRAFDKYEKSAALVSNSQLLVKPLDMIVGKAWNMFSSKAFIHQYTKFGMEEEDFLDSFALLEQVVASYGSLGP | not soluble
